Patent US20030162220A1 (HARUO SUGIYAMA, published 2003)

Molecular target: T1, GST (glutathione S-transferase) alone (UniProt P08515 1-218 = GST)
T1 construct: Control probe in the west western blots
Experiment: west western blot of his-tagged WTIP fragments (E. coli lysate) probed with GST

T1 sequence (P08515 whole entry): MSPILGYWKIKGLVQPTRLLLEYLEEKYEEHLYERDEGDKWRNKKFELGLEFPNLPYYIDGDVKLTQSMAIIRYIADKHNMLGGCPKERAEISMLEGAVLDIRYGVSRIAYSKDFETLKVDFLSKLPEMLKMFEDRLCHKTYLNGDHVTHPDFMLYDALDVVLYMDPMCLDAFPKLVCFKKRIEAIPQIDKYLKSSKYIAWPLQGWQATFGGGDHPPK

| binding result | Binder |
| --- | --- |
| no binding | WTIP 1-178, polypeptide containing the WW domain at the N-terminal end of WTIP with a histidine tag at the C-terminal (other, Expressed in E. coli; whole-cell lysate run on SDS-PAGE and blotted; not shown: C-terminal his tag and XhoI junction residues from pET-21b(+)) MRPGTGAERGGLMVSEMESHPPSQGPGDGERRLSGSSLCSGSWVSADGFLRRRPSMGHPGMHYAPMGMHPMGQRANMPPVPHGMMPQMMPPMGGPPMGQMPGMMSSVMPGMMMSHMSQASMQPALPPGVNSMDVAAGTASGAKSMWTEHKSPDGRTYYYNTETKQSTWEKPDDLKTPA |
| no binding | WTIP 1-98, polypeptide containing no WW domains with a histidine tag at the C-terminal (other, Expressed in E. coli; whole-cell lysate run on SDS-PAGE and blotted; also called HYPA/FBP11 amino acids 1-98; mutant containing no WW domain; not shown: C-terminal his tag and XhoI junction residues from pET-21b(+)) MRPGTGAERGGLMVSEMESHPPSQGPGDGERRLSGSSLCSGSWVSADGFLRRRPSMGHPGMHYAPMGMHPMGQRANMPPVPHGMMPQMMPPMGGPPMG |
